{"source": "patent US12637513B2", "about": "“Method of treating cancer by administering an inhibitor of erythropoietin receptor activity comprising either erythropoietin receptor or erythropoietin protein” (ImmunEdge, Inc., priority 2022, dated 2026)", "molecules": {"B1": {"name": "EPORab - M2: hybridoma antibody clone, VH/VK in Table 10 (antibody, V domains shown)", "VH": "QVQLVESGGGLVKPGGSLRLSCAASGFTFSDSYMSWIRQAPGKGLEWVSYISNSGSYMYYADSVKGRFTISRDNAKNSLYLQMNNLRAEDTAVYYCARDKLGIGDYWGQGTLVTVSS", "VL": "DIQMTQSPSSLSASVGDRVTITCRASQGIRNDLGWFQQKPGKAPKRLIYAASRLQSGVPSRFSGSGSGTEFTLTISSLQPEDFATYCCLQHHTYPPTFGQGTKVEIK"}}, "key": {"[1]": {"target": "T1, EPO/EPOR interaction (EPOR-CD131-Fc and EPO) (Homo sapiens, UniProt P19235+P32927)", "T1 construct": "Chimeric Fc fusion proteins of the extracellular domains of human EPOR and human CD131; purchased Sino Biological CT010-H02H", "T1 sequence (P19235 25-250 limits assumed)": "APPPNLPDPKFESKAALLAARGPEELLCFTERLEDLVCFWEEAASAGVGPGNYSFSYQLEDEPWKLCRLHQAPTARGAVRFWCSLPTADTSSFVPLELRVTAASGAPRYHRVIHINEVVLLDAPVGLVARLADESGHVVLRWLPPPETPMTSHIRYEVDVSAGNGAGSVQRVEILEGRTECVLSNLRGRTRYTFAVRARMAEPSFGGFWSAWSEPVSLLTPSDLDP", "T1 sequence (P32927 17-443 limits assumed)": "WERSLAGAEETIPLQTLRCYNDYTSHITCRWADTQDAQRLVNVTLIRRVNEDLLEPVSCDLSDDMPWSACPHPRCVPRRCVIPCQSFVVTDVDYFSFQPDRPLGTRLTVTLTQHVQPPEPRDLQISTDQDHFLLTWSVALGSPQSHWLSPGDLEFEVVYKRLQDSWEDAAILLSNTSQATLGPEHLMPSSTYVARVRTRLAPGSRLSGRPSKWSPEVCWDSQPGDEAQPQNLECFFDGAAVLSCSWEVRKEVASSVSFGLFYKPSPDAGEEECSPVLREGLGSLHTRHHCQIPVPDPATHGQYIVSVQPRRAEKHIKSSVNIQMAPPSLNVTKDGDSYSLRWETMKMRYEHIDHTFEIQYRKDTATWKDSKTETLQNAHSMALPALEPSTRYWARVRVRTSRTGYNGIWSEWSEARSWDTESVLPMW", "test": "Octet blocking of the EPO/EPOR interaction by hybridoma supernatants", "format": "binding", "conditions": "EPO 10 nM"}, "EPOR-Fc": {"target": "T2, EPOR-Fc (Homo sapiens, UniProt P19235)", "T2 construct": "The extracellular domains of EPOR or CD131 are produced as soluble Fc fusion proteins; purchased Sino Biological 10707-H02H", "T2 sequence (P19235 25-250 limits assumed)": "T1 sequence (P19235 25-250 limits assumed)", "test": "Bio-layer interferometry (Octet) binding of hybridoma antibodies to EPOR-Fc", "conditions": "hybridoma supernatants; 30 nM soluble receptor", "from_the_text": "The B cells from ATX-GK mice were fused with mouse myeloma cells to generate hybridoma. The hybridoma cells were screened twice. In the first screening, 293 cells expressing human EPOR, human CD131, or both were used as the primary screen. 87 hybridoma antibodies have been isolated by positive staining on 293T cells expressing human EPOR (hEPOR), human CD131 (hCD131), or both, with the hybridoma supernatants (Table 11 and FIG. 17). Expression of EPOR and CD131 was confirmed by flow cytometry with Phycoerythrin (PE)-labeled anti-EPOR (R&D Systems, Cat #FAB307P) and Alexa Fluor® 647 (AF647)-labeled anti-CD131 (BD Biosciences, Cat #564191), respectively (FIG. 28B). All hybridoma clones were purified and sequenced. Binding kinetics with soluble hetero-EPOR (EPOR-CD131-Fc), soluble EPO receptor subunit of hetero-EPOR (EPOR-Fc), and soluble CD131 subunit of hetero-EPOR (CD131-Fc) were measured using bio-layer interferometry (Octet®) by capturing the hybridoma antibodies in the supernatants on biosensors coated with anti-mouse Fc first and dipping the biosensors into the solutions containing 30 nM of the soluble receptor Fc fusion proteins. The supernatants were also used to block the interaction between EPO and EPOR. The soluble EPOR-CD131-Fc was first captured on biosensors coated with anti-human Fc and then dipped into 10 nM of EPO with or without the hybridoma supernatants. […]"}, "EPOR (UT-7 cells)": {"target": "T3, EPOR (UT-7 cells) (Homo sapiens, UniProt P19235)", "T3 construct": "endogenous in cells; host or cells: UT-7 human leukemia cells", "T3 sequence (P19235 25-508)": "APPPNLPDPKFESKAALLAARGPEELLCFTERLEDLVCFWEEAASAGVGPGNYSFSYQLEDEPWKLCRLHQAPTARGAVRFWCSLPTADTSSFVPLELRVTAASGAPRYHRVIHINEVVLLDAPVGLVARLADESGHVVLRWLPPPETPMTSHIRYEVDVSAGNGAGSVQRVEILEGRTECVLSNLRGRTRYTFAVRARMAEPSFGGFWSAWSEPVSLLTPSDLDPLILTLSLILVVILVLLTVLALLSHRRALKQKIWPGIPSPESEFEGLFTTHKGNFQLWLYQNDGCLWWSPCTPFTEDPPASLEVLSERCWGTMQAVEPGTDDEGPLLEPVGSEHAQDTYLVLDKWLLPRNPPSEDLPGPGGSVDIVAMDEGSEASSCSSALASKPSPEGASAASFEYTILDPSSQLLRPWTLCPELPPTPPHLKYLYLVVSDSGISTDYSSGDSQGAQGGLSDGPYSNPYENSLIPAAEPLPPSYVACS", "test": "Flow-based phosphorylated Stat5 assay, blocking by anti-EPOR antibodies", "format": "cell-based", "conditions": "20 μg/ml antibody; 0.1 μg/ml recombinant human EPO", "experimental": "EPOR activation leads to phosphorylation of Stat5. A flow-based assay on phosphorylated Stat5 was set up to test the blocking activities of anti-EPOR antibodies. The UT-7 cells were cultured without GM-CSF for overnight before the EPO stimulation. 3×10^6 cells/ml were incubated with 20 μg/ml of anti-EPOR for 15 minutes before stimulation with 0.1 μg/ml of recombinant human EPO (Peprotech®, Cat #100-64) for 10 minutes at 37° C. The cells were fixed immediately with fixation buffer (Cytofix™ buffer; BD Biosciences, Cat #554655) and permeabilized with methanol. After washing, cells were stained with PE labeled anti-Stat5 (BD Biosciences, Cat #612567) and subjected to flow cytometry analysis."}}, "data": [{"molecule": "B1", "values": [{"measurement": "blocking of the EPO/EPOR interaction", "setting": "[1]", "result": "nearly complete blocking"}, {"measurement": "binding to EPOR-Fc", "setting": "EPOR-Fc", "result": "potent binding"}, {"measurement": "blocking of Stat5 phosphorylation", "setting": "EPOR (UT-7 cells)", "result": "complete blocking"}]}]}
